Results: US20050106660A1 (Pieris, published 2005)

Tests used:
[1] = target: T1, bovine serum albumin (BSA, Sigma) (bovine, UniProt P02769 25-607); experiment: SPR (BIAcore X), BSA immobilized on CM5 chip, steady state
T1 construct: Immobilized by amine coupling on a CM5 chip (ca. 5000 RU)

hemoglobin (Sigma) [2] = target: T2, hemoglobin (Sigma); experiment: SPR (BIAcore X), hemoglobin immobilized on CM5 chip, steady-state values fitted
T2 construct: Immobilized by amine coupling on a CM5 chip (ca. 5000 RU)
Experimental: (§1) The binding affinity of the anticalin HbgA to hemoglobin was determined by surface plasmon resonance (SPR) using the BIAcore X system (BIACORE). Hemoglobin (100 μg/ml, dissolved in 10 mM maleate, pH 6.0) was immobilized at an amount of ca. 5000 resonance units (RU) to the surface of one flow channel on a CM5 sensor chip (BIACORE) using the amine coupling kit (BIACORE) according to the manufacturer's instructions. Unreacted groups on the biosensor chip surface were blocked with 1 M ethanolamine hydrochloride-NaOH pH 8.5. […] The concentration of HbgA and also of ApoD were determined by absorption at 280 nm using a calculated extinction coefficient of 54600 M⁻¹ cm⁻¹ and 34150 M⁻¹ cm⁻¹, respectively (Gill and von Hippel, Anal. Biochem. 182 (1989), 319-326). […] The binding of HbgA to hemoglobin, immobilized on the sensor chip, was measured by applying each 75 μl of these protein solutions. Steady state resonance values were detected for the channel with the immobilized hemoglobin for each concentration applied. For each measurement the resonance value that was due to buffer effects and simultaneously measured for the second channel of the sensor chip, was subtracted, and the resulting difference value was plotted against the applied concentration. […]

hemoglobin (Sigma) [3] = target: T2, hemoglobin (Sigma); experiment: not stated there (affinity measured by SPR in Example 5)
Experimental: as §1

T1 sequence (P02769 25-607 limits assumed): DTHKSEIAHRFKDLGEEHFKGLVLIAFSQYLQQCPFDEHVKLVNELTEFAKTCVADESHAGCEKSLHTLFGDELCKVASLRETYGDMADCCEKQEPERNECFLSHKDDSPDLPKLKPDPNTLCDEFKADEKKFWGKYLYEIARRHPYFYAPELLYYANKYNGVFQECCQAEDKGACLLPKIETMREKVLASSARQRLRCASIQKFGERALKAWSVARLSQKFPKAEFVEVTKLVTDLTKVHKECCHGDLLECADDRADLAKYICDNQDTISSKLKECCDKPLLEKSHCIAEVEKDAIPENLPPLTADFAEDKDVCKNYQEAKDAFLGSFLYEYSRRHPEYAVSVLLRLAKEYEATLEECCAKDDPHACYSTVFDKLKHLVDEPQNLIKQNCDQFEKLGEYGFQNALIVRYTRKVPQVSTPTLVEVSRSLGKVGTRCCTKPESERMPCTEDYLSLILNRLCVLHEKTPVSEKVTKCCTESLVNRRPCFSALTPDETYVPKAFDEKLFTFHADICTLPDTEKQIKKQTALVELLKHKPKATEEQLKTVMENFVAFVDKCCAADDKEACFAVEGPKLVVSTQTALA

B1: anticalin HbgA (mutein of human apolipoprotein D), purified, with C-terminal Strep-Tag II (designed binder)
chain: QAFHLGKCPNPPVQENFDVNKYPGRWYEIEKIPQFVWMGRCIQANYSLMENGKIKVLNQFLRITLDVWQIEGEATPVNLTEPAKLEVKEGLGDPSAPYWILATDYENYALVYSCESFLWLFHWDFAWILARNVALPPETVDSLKNILTSNNIDVKKMTVTDQVNCPKLS
notes: The amber codon at position 34 was replaced by a Gln codon; Scaffold carries Leu23Pro, Cys116Ser, Pro133Val, Asn134Ala; also called mutein HbgA; not shown: Strep-Tag II fused to the C-terminus (expression from pApoD10)
binding result [1]: no binding | Kd (hemoglobin (Sigma) [2]): 2200 nM | Ka (hemoglobin (Sigma) [3]): > 1e+06 M⁻¹
